From article PMC3553496 (Science signaling, 2011)

T1: Dynein heavy chain 6 peptide (18-mer) (human)
T1 peptide: EKERPPKPEAPWLPTATW

T2: Large proline-rich protein BAT3 peptide (18-mer) (human)
T2 peptide: QTLGQQVPGFPTAPTRVV

T3: Paxillin-associated protein with ARF GAP activity 3 peptide (18-mer) (human)
T3 peptide: GISQIRPPPLPPQPPSRL

T4: Protein Shroom 3 peptide (18-mer) (human)
T4 peptide: ASDSGRGPQRPDARLLRS

T5: CDK5 and ABL1 enzyme substrate 1 peptide (18-mer) (human)
T5 peptide: GCIALAAPGTPAAGLAAG

T6: Calpain-2 catalytic subunit peptide (18-mer) (human)
T6 peptide: AGTLFQDPSFPAIPSALG

T7: Cathepsin B peptide (18-mer) (human)
T7 peptide: CGTFLGGPKPPQRVMFTE

T8: Chromodomain helicase-DNA binding protein 3 peptide (18-mer) (human)
T8 peptide: YLNLSQEPAHPAMALHAR

T9: Serotransferrin peptide (18-mer) (human)
T9 peptide: NLREGTCPEAPTDECKPV

T10: SRA stem-loop–interacting RNA binding protein, mitochondrial peptide (18-mer) (human)
T10 peptide: VQVHTRRPKLPQTSDDEK

T11: Eukaryotic translation initiation factor 2-a kinase 3 peptide (18-mer) (human)
T11 peptide: VRISEKFPSSPKALESVT

T12: Vigilin peptide (18-mer) (human)
T12 peptide: PTYKDAFPPLPEKAACLE

T13: Protein FAM134C peptide (18-mer) (human)
T13 peptide: ALVEVLGPYEPLLSRVQA

B1: GST-tagged ARHGAP10 SH3 domain (domain or fragment, human, UniProt A1A4S6 731-786, looked up)
chain: RKARAVYPCEAEHSSELSFEIGAIFEDVQTSREPGWLEGTLNGKRGLIPQNYVKLL
B2: GST-tagged RICS SH3 domain (domain or fragment, human, UniProt A7KAX9 262-320, looked up)
chain: GAAHVIKRYTARAPDELTLEVGDIVSVIDMPPKVLSTWWRGKHGFQVGLFPGHCVELIN

Tests used:
Assay in all cases: peptide or protein array
[1] = molecular target: T1, Dynein heavy chain 6 peptide (18-mer)
[2] = molecular target: T2, Large proline-rich protein BAT3 peptide …
[3] = molecular target: T3, Paxillin-associated protein with ARF …
[4] = molecular target: T4, Protein Shroom 3 peptide (18-mer)
[5] = molecular target: T5, CDK5 and ABL1 enzyme substrate 1 …
[6] = molecular target: T6, Calpain-2 catalytic subunit peptide …
[7] = molecular target: T7, Cathepsin B peptide (18-mer)
[8] = molecular target: T8, Chromodomain helicase-DNA binding …
[9] = molecular target: T9, Serotransferrin peptide (18-mer)
[10] = molecular target: T10, SRA stem-loop–interacting RNA binding …
[11] = molecular target: T11, Eukaryotic translation initiation …
[12] = molecular target: T12, Vigilin peptide (18-mer)
[13] = molecular target: T13, Protein FAM134C peptide (18-mer)

Binder	relative binding strength (% of the strongest interaction of this SH3 domain) [1]	relative binding strength (% of the strongest interaction of this SH3 domain) [2]	relative binding strength (% of the strongest interaction of this SH3 domain) [3]	relative binding strength (% of the strongest interaction of this SH3 domain) [4]	relative binding strength (% of the strongest interaction of this SH3 domain) [5]	relative binding strength (% of the strongest interaction of this SH3 domain) [6]	relative binding strength (% of the strongest interaction of this SH3 domain) [7]	relative binding strength (% of the strongest interaction of this SH3 domain) [8]	relative binding strength (% of the strongest interaction of this SH3 domain) [9]	relative binding strength (% of the strongest interaction of this SH3 domain) [10]	relative binding strength (% of the strongest interaction of this SH3 domain) [11]	relative binding strength (% of the strongest interaction of this SH3 domain) [12]	relative binding strength (% of the strongest interaction of this SH3 domain) [13]
B1	95%	58%	100%	37%	–	–	–	–	–	–	–	–	–
B2	–	–	–	–	7%	49%	100%	88%	49%	7%	15%	5%	85%
